Experimental data taken from US20220378925A1 (ORIONIS BIOSCIENCES, published 2022).

Biological target: PD-L1 endogenously expressed on HL116 cells (human, UniProt Q9NZQ7 19-290)
Assay: cell-based or functional assay

Chain of PD-L1 endogenously expressed on HL116 cells (Q9NZQ7 19-290): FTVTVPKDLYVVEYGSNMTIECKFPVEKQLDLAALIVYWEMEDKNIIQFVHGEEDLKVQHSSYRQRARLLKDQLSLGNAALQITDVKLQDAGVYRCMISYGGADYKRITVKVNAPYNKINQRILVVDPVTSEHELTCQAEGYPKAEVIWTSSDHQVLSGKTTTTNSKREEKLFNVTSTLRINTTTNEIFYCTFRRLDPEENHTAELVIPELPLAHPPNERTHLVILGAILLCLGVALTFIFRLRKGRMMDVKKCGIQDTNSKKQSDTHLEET

B1: 2LIG99-hIFNα1, linker-cysteine 12 kDa PEGylated (other)
chain: DVQLVESGGGLVQPGGSLRLSCTASGTIFSINRMDWFRQAPGKQRELVALITSGGTPAYADSAKGRFTISRDNSKNTVYLQMNSLRPEDTAVYYCHVSSGVYNYWGQGTLVTVSSGGSGGSGGSGGSGGSGGSGGSGGSGGSGGCGGSGGSGGSGGSGGSGGSGGSGGSGGSGGSCDLPETHSLDNRRTLMLLAQMSRISPSSCLMDRHDFGFPQEEFDGNQFQKAPAISVLHELIQQIFNLFTTKDSSAAWDEDLLDKFSTELYQQLNDLEACVMQEERVGETPLMNADSILAVKKYFRRITLYLTEKKYSPCAWEVVRAEIMRSLSLSTNLQERLRRKEHHHHHH
modifications: 12 kDa mPEG-Maleimide on the cysteine in the middle of the linker (about 75% monoPEGylated material)
  decrease of biological activity after linker-cysteine PEGylation, HL116 reporter-assay: 10 fold

B2: 2LIG99-hIFNα1, amine PEGylated (polyPEGylated, mPEG20K-Succinimidyl Carboxymethyl Ester) (other)
chain: DVQLVESGGGLVQPGGSLRLSCTASGTIFSINRMDWFRQAPGKQRELVALITSGGTPAYADSAKGRFTISRDNSKNTVYLQMNSLRPEDTAVYYCHVSSGVYNYWGQGTLVTVSSGGSGGSGGSGGSGGSGGSGGSGGSGGSGGCGGSGGSGGSGGSGGSGGSGGSGGSGGSGGSCDLPETHSLDNRRTLMLLAQMSRISPSSCLMDRHDFGFPQEEFDGNQFQKAPAISVLHELIQQIFNLFTTKDSSAAWDEDLLDKFSTELYQQLNDLEACVMQEERVGETPLMNADSILAVKKYFRRITLYLTEKKYSPCAWEVVRAEIMRSLSLSTNLQERLRRKEHHHHHH
modifications: several 20 kDa PEG groups on the N-terminal amine and/or lysine residues (mainly polyPEGylated, sites not stated)
  drop of biological activity upon amine (poly)PEGylation, HL116 reporter-assay: ~20000 fold

B3: 2LIG99-hIFNα1, N-terminal 20 kDa PEGylated (other)
chain: DVQLVESGGGLVQPGGSLRLSCTASGTIFSINRMDWFRQAPGKQRELVALITSGGTPAYADSAKGRFTISRDNSKNTVYLQMNSLRPEDTAVYYCHVSSGVYNYWGQGTLVTVSSGGSGGSGGSGGSGGSGGSGGSGGSGGSGGCGGSGGSGGSGGSGGSGGSGGSGGSGGSGGSCDLPETHSLDNRRTLMLLAQMSRISPSSCLMDRHDFGFPQEEFDGNQFQKAPAISVLHELIQQIFNLFTTKDSSAAWDEDLLDKFSTELYQQLNDLEACVMQEERVGETPLMNADSILAVKKYFRRITLYLTEKKYSPCAWEVVRAEIMRSLSLSTNLQERLRRKEHHHHHH
modifications: 20 kDa mPEG-aldehyde on the N-terminal amine (mainly mono-PEGylated)
  reduction in biological activity after N-terminal 20 kD PEGylation, HL116 reporter-assay: ~20 fold
